Patent publication US20190345216A1, “SorCS PEPTIDES AND USES THEREOF” (AARHUS UNIVERSITET, priority 2015, published 2019)
Entries after “also recorded” stand apart in the source; their conditions may differ.

Assays:
[1] = tested on: Wild type and SorCS2−/− mice; experiment: Marble burying test; format: in vivo, mouse; settings: fluoxetine 20 mg/kg injected 1 hour before, 20 min test
Description: The SorCS2 knockout mouse has been back-crossed for ten generations into C57/BL6J. Behavioral studies were done with the backcrossed homozygous mice compared to the same C57/BL6J substrain that was used for backcrossing (Glerup, Olsen et al., 2014). In the presented experiments, all mice lines had been backcrossed for ten generations into C57/BL6Jbom (Taconic) and littermate controls were used for experiments. All experiments were approved by the Danish Animal Experiments Inspectorate under the Ministry of Justice (Permit 2011/561-119) and carried according to institutional and national guidelines. All animals were bred and housed at the Animal Facility at Aarhus University. Animals were housed in groups of up to five mice per plastic cage (42×25×15 cm) under pathogen-free conditions with a 12-hour light/12-hour dark schedule and fed standard chow (Altromin #1324) and water ad libitum. Cages were cleaned every week and supplied with bedding and nesting material, a wooden stick, and a metal tunnel. Behavioral experiments were carried out using 12-16 weeks old male mice during their light cycle between 9:00 a.m. to 5:00 p.m. […]
Wild type and SorCS2^−/− mice were injected with either saline only or saline containing 20 mg/ml (20 mg/kg) fluoxetine (trade name Prozac™). […] They were then left for 20 min and hereafter the number of marbles that were more than 50% buried in each cage was counted.

[2] = tested on: SorCS2; experiment: Western blot of SorCS2 expression in hippocampus and cortex after fluoxetine; format: in vivo, mouse; settings: wt mice, fluoxetine in water for 3 weeks
Description: 3 wild-type mice were given either normal tap water or tap water containing 0.8 mg/ml fluoxetine for 3 weeks with water-chance once a week. Hereafter, the mice were euthanized by cervical dislocation and the hippocampus and cortex was dissected out. The samples were lysed in lysis buffer containing protease and phosphatase inhibitors. The samples were then analysed by Western blotting to see if treatment with fluoxetine can increase SorCS2 levels.

[3] = tested on: hippocampal neurons; experiment: BDNF induced formation of inhibitory synapses and spine density in vitro; format: cell-based, mouse; settings: 1 nM BDNF; for number of glutamatergic synapses/spines: 24 hours; for number of inhibitory synapses: 72 hrs
Description: For studies on BDNF induced formation of inhibitory synapses, neurons from p0 wild type (wt) and SorCS2^−/− pups were seeded at a density of 100.000 neurons per coverslip. After 7 days in vitro, the medium was changed to medium containing either 1 nM of BDNF or similar volumes of sterile D-PBS. Neurons were incubated for 72 hrs at 37° C. and 5% CO2 before being fixed for 20 min in ice cold 4% PFA. After three 5 min washes in D-PBS, the neurons were stained against gephyrin, an inhibitory marker, and co stained against Map2, a marker of the dendritic tree. Images were taken by confocal microscopy and analysed using Imaris software.
To determine spine density in vitro, hippocampal neurons were isolated at PO and grown in culture at a density of 100.000 neurons pr coverslip. After 7 days in vitro the neurons were transfected with a plasmid containing GFP using Lipofectamine LTX reagent (15338-100) using the suppliers protocol. At 13 days in vitro the medium was changed to medium containing either 1 nM or 0 nM BDNF. Hereafter the cells were left in the incubator at 37° C. for 24 hours before being fixed in 4% PFA for 20 minutes at room temperature. To determine spine density, confocal images were obtained and subsequently assessed using Imaris software.

[4] = tested on: hippocampal neurons; experiment: Dendritic branching of neurons in vitro upon BDNF; format: cell-based, mouse; settings: 1 nM BDNF
Description: (§1) To determine dendritic branching of neurons in vitro, hippocampal neurons were isolated from PO mice and grown in culture at a density of 5000 neurons per coverslip. After 24 hours the medium was changed to medium containing either 1 nM of BDNF or same volume of sterile PBS. Hereafter, the cells were left in the incubator at 37° C. for 72 hours before being fixed in 4% PFA for 20 minutes at room temperature. To determine cell morphology, the neurons were stained against β-tubulin (β-tubulin mouse mAb chemicon MAB3408). Images were taken using a confocal microscope and the branching patterns were analysed using Zen 2011 Image Processing (Carl Zeiss) as follows: The 1st, 2nd, 3rd and 4th order branching patterns the neurons were counted where 1S^t order branches were defined as neurites protruding from the cell soma and were only considered 1st order branches if the branch was longer than the diameter of the soma. 2nd order branches were defined as processes extending from the 1st order branch, and so forth.
For studies on BDNF induced morphological changes of GABAergic interneurons, neurons from p3 WT and SorCS2^−/− pups were seeded at a density of 5.000 neurons per coverslip. The WT and SorCS2^−/− neurons were seeded in 1 mL Neurobasal-A Medium containing either 1 nM BDNF or similar volumes of sterile D-PBS. The neurons were incubated for 72 hrs at 37° C. and 5% CO2 before being fixed for 20 min in ice cold 4% PFA. After three 5 min washes in D-PBS, neurons were stained, against mouse anti-β-tubulin and rabbit anti-GABA. Pictures were taken using a confocal microscope and the branching patterns were analysed using Zen 2011 Image Processing (Carl Zeiss) as follows: The 1st, 2nd, 3rd and 4th order branching patterns the neurons were counted where 1st order branches were defined as neurites protruding from the cell soma and were only considered 1st order branches if the branch was longer than the diameter of the soma. 2nd order branches were defined as processes extending from the 1st order branch, and so forth.

[5] = tested on: SorCS2; experiment: SorCS2 phosphorylation (32P labelling, immunoprecipitation, autoradiography); format: cell-based, mouse; settings: wt neurons; 1 nM BDNF 10 minutes vs unstimulated
Description: For studies on SorCS2 phosphorylation (FIG. 4A), wt neurons were seeded at a density of 2.5 million pr 6-well. After five days in culture, the medium was changed to phosphate-free medium+0.4 mCi/ml of ^32P labelled phosphate and left for 4 hours 37° C. and 5% CO2. Hereafter, the neurons were washed once in phosphate-free medium and medium is added containing 1 nM BDNF or similar volume of sterile PBS. This is left on for 10 minutes before removing the media and adding lysis buffer containing protease- and phosphatase-inhibitors. From the samples, immunoprecipitation was carried out using antibodies against SorCS2. The samples were then analyzed by SDS-gel and subsequent autoradiography to evaluate the phosphorylation of SorCS2.

[6] = molecular target: T1, TrkB (Homo sapiens, UniProt Q16620); experiment: TrkB phosphorylation in transfected hSY5Y cells; format: cell-based; settings: hSY5Y cells with SorCS2 and TrkB compared to only TrkB
T1 construct: expressed in transfected cells; host or cells: hSY5Y cells
T1 sequence (Q16620 32-822, species assumed): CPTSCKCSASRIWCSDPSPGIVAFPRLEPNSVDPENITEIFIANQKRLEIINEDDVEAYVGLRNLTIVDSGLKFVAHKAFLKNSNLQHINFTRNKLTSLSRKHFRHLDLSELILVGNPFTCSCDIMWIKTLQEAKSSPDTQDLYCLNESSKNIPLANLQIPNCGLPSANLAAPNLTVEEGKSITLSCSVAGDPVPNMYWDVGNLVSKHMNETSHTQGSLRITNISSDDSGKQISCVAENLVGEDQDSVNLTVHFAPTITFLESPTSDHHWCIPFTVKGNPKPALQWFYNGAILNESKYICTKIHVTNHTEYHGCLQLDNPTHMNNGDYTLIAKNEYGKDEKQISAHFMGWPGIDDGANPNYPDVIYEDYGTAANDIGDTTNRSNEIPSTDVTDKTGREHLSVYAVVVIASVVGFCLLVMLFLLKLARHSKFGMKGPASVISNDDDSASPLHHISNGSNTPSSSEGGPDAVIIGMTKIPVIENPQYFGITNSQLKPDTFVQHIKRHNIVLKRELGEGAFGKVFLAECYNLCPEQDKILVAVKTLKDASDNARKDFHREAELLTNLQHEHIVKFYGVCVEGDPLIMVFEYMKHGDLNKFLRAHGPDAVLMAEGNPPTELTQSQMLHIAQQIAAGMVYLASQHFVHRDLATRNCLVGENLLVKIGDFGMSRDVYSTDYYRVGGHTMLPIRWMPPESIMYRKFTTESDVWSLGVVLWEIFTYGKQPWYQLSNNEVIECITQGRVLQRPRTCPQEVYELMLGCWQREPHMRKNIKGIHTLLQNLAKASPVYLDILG
Description: (§2) In FIG. 6 it is shown that SorCS2 is important for phosphorylation of the BDNF-receptor TrkB.hSY5Y cells were transfected with either SorCS2, TrkB or both (FIG. 6, panels A and B). Upon stimulation with BDNF a 2.5 fold increase in phosphorylation of TrkB was seen when SorCS2 was also present, compared to when only TrkB was present (FIG. 6, panel B). […] This indicates a critical role of SorCS2 in mediating the response to BDNF

[7] = tested on: PLCy; experiment: PLCy phosphorylation in transfected hSY5Y cells; format: cell-based; settings: hSY5Y cells with SorCS2 and TrkB compared to only TrkB
Description: as §2

[8] = tested on: SorCS2−/− neurons; experiment: BDNF-mediated branching of SorCS2−/− neurons transfected with SorCS2 constructs; format: cell-based, mouse
Description: To study the role of SorCS2 in BDNF-mediated branching (FIG. 4B-G), SorCS2^−/− neurons were seeded at a density of 100.000 neurons pr coverslip in media containing the desired SorCS2 mutant together with GFP. After 6 hours, the medium was changed to normal neurobasal A medium containing either 1 nM BDNF or similar volume of sterile PBS. The neurons were incubated for 72 hrs at 37° C. and 5% CO2 before being fixed for 20 min in ice cold 4% PFA, before a three times 5 min washes in D-PBSPictures were taken using a confocal microscope and the branching patterns were analysed using Zen 2011 Image Processing (Carl Zeiss) as follows: The 1st, 2nd, 3rd and 4th order branching patterns of GFPpositive neurons were counted where 1st order branches were defined as neurites protruding from the cell soma and were only considered 1st order branches if the branch was longer than the diameter of the soma. 2nd order branches were defined as processes extending from the 1st order branch, and so forth. […]

[9] = tested on: wild type neurons; experiment: Morphological (neurotrophic) response of wild type neurons to SorCS2 tail peptides; format: cell-based, mouse; settings: wt neurons; 1 nM BDNF
Description: as §1
We next created peptides similar to the intracellular tail of SorCS2. The first peptide had similar sequence to wild type SorCS2 tail except the serines at position 1125, 1128 and 1130, which had been changed to aspartic acids. Furthermore a TAT sequence had been added to facilitate entry into the neurons (FIG. 11), denoted “Ppep”.

Q: How did the “number of marbles buried” value ([1]; SorCS2−/− mice) turn out when CNCCC(Oc1ccc(C(F)(F)F)cc1)c1ccccc1 (stereo not drawn) [fluoxetine] was run?
A: this effect was not observed; also recorded: this was not the case

Q: What about the “number of marbles buried” value ([1]; wild type mice) of the same molecule?
A: calmed and buried less marbles

Q: And the “expression of SorCS2 (Western blot)” value ([2]; cortex)?
A: not in the cortex

Q: What about the “expression of SorCS2 (Western blot)” value ([2]; hippocampus) of the same molecule?
A: increase

B1: BDNF: brain-derived neurotrophic factor, ligand of tyrosine kinase receptor TrkB (protein, UniProt P23560 19-247, looked up)
Neurotrophic factor BDNF …: APMKEANIRGQGGLAYPGVRTHGTLESVNGPKAGSRGLTSLADTFEHVIEELLDEDQKVRPNEENNKDADLYTSRVMLSSQVPLEPPLLFLLEEYKNYLDAANMSMRVRRHSDPARRGELSVCDSISEWVTAADKKTAVDMSGGTVTVLEKVPVSKGQLKQYFYETKCNPMGYTKEGCRGIDKRHWNSQCRTTQSYVRALTMDSKKRIGWRFIRIDTSCVCTLTIKRGR
Q: Which results are given for B1?
A: number of glutamatergic synapses/spines ([3]; neurons lacking SorCS2): not the case; number of inhibitory synapses ([3]; neurons lacking SorCS2): not the case; number of glutamatergic synapses/spines ([3]; wt neurons): increase; number of inhibitory synapses ([3]; wt neurons): increase; dendritic complexity (branching) ([4]; GABAergic interneurons lacking SorCS2, 72 hrs): non-responsive; dendritic complexity (branching) ([4]; glutamatergic neurons lacking SorCS2, 72 hours): not the case; dendritic complexity (branching) ([4]; wt GABAergic interneurons, 72 hrs): increase in complexity; dendritic complexity (branching) ([4]; wt glutamatergic neurons, 72 hours): increase in complexity; phosphorylation of SorCS2 [5]: increased phosphorylation; increase in phosphorylation of TrkB upon BDNF stimulation [6]: 2.5 fold; phosphorylation of PLCy upon BDNF stimulation [7]: significant increase; neurite branching response to BDNF ([8]; SorCS2−/− neurons transfected with S1128A variant): lost; neurite branching response to BDNF ([8]; SorCS2−/− neurons transfected with S1130A variant): lost; neurite branching response to BDNF ([8]; SorCS2−/− neurons transfected with full length SorCS2, 1 nM BDNF): rescues the response; also recorded: able to rescue response; neurite branching response to BDNF ([8]; SorCS2−/− neurons transfected with full-length variant S1125A, S1128A and S1130A): diminished; neurite branching response to BDNF ([8]; SorCS2−/− neurons transfected with variant lacking the intracellular domain): no increase in neurite branching; neurite branching response to BDNF ([8]; SorCS2−/− neurons transfected with variant with deletion of 56 amino acids): lost; neurite branching response to BDNF ([8]; SorCS2−/− neurons transfected with variant with deletion of the last 21 amino acids): still rescued the phenotype; neurite branching response to BDNF ([8]; SorCS2−/− neurons transfected with variant with deletion of the last 35 amino acids): still rescued the phenotype; complexity of neurons compared to neurons without BDNF (FIG. 13) [9]: increased in complexity
